Laboratory results: patent US20250296960A1, “PEPTIDE COMPOSITIONS AND METHODS OF USE THEREOF” (priority 2022, published 2025)
Where two headings read alike, the source gives them in different places. Numbered stars: 1 amine (or outer) side, 2 acyl side, 3 side chain; on linkers, the order of the positions; unused ones are H or OH. Square brackets hold non-standard residues; d marks the D form. Side chains are listed from the residue outwards. Ends that are not written are not given here. * marks the point of attachment. C18 = C18 fatty acid (C16-C22 fatty acids conjugated via γGlu/8-amino-3,6-dioxaoctanoic acid spacers); Biotin = O=C1N[C@H]2[C@H](CS[C@H]2CCCCC(=O)*)N1; γGlu = O=C(O)[C@H](CCC(=O)[*:2])N[*:1]; biotin‑maleimide = B1-MAL; AEEA = NCCOCCOCC(=O)O; Aib = CC(C)(N)C(=O)O; MAL = maleimide

T1: human glucose-dependent insulinotropic polypeptide receptor (GIPR), expressed on CHO-K1 cells (human, UniProt P48546 22-466)
T1 sequence (looked up): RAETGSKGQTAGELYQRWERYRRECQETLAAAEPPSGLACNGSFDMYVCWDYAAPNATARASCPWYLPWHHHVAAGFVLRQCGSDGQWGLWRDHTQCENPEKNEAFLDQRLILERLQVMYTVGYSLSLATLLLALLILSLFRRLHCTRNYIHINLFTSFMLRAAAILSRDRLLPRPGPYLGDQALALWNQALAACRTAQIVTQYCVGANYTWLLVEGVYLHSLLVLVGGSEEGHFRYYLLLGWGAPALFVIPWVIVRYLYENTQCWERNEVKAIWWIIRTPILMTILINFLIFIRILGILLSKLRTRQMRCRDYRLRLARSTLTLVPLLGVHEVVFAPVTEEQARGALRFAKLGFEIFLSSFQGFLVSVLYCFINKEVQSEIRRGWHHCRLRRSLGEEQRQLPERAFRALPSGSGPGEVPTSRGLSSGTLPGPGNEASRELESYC


Key:
Assay in all cases: cell-based or functional assay
[1] = target: T1, human glucose-dependent insulinotropic …
[2] = target: T2, human glucagon receptor (GCGR), expressed on CHO-K1 cells (human, UniProt P47871 26-477)
[3] = target: T3, human GLP-1 receptor (GLP-1R), expressed on CHO-K1 cells (human, UniProt P43220 24-463)
[4] = target: T1, human glucose-dependent insulinotropic …; remark: listed apart in the source
[5] = target: T2, human glucagon receptor (GCGR), …; remark: listed apart in the source
[6] = target: T3, human GLP-1 receptor (GLP-1R), …; remark: listed apart in the source
[7] = target: T1, human glucose-dependent insulinotropic …; remark: listed apart in the source
[8] = target: T2, human glucagon receptor (GCGR), …; remark: listed apart in the source
[9] = target: T3, human GLP-1 receptor (GLP-1R), …; remark: listed apart in the source

T2 sequence (P47871 26-477): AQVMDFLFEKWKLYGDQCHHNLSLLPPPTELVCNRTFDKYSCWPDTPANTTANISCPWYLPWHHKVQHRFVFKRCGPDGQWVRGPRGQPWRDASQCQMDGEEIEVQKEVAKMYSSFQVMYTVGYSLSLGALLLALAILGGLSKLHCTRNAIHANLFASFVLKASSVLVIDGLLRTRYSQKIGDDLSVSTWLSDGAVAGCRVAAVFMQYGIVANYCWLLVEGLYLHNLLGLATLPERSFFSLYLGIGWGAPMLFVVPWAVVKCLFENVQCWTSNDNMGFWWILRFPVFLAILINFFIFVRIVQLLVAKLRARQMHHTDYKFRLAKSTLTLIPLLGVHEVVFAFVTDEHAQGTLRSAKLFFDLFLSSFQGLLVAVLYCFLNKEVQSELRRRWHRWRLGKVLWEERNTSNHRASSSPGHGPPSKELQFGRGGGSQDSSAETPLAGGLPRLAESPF

Binder | EC50 (nM), cAMP assay [1] | EC50 (nM), cAMP assay [2] | EC50 (nM), cAMP assay [3] | EC50 (nM), cAMP assay [4] | EC50 (nM), cAMP assay [5] | EC50 (nM), cAMP assay [6] | Percentage change in EC50 relative to GIP at human GIPR (%) [7] | Percentage change in EC50 relative to GCG at human GCGR (%) [8] | Percentage change in EC50 relative to GLP-1 at human GLP-1R (%) [9]
H[Aib]QGTFTSDYSKYLDYMMARDFVQWLIEGGPSSGAPPPSC([MAL-AEEA-AEEA-γGlu-C18])-NH2 [Peptide No. 5A (peptide 5, A type: lipid at Cys40)] | 157 nM | 1.71 nM | 0.0967 nM | 140 nM | 9.29 nM | 0.187 nM | – | – | –
H[Aib]QGTFTSDHSWYLDKWTAHDFVQWLINGGPSSGAPPPSC([MAL-AEEA-AEEA-γGlu-C18])-NH2 [Peptide No. 18A (peptide 18, A type: lipid at Cys40)] | – | – | – | – | – | – | 0% | 0% | 0%
H[Aib]QGTFTSDASKYLDRDWTGDFVQWLIDGGPSSGAPPPSC([MAL-AEEA-AEEA-γGlu-C18])-NH2 [Peptide No. 32A (peptide 32, A type: lipid at Cys40)] | – | – | – | – | – | – | 0% | 0% | 1%
H[Aib]QGTFTSDYSK(Biotin)YLDYMMARDFVQWLIEGGPSSGAPPPSC([MAL-AEEA-AEEA-γGlu-C18])-NH2 [Peptide No. 5B (peptide 5, B type: lipid at Cys40 and biotin at Lys12)] | – | – | – | 97.2 nM | 15.1 nM | 0.18 nM | – | – | –
H[Aib]QGTFTSDYSK([AEEA-AEEA-γGlu-C18])YLDYMMARDFVQWLIEGGPSSGAPPPSC(biotin‑maleimide)-NH2 [Peptide No. 5C (peptide 5, C type: lipid at Lys12 and biotin at Cys40)] | – | – | – | 24.2 nM | 3.23 nM | 0.0772 nM | – | – | –
